Results on one protein are retold here after patent publication US20140031526A1 (YISSUM RESEARCH DEVELOPMENT COMPANY OF THE HEBREW …, published 2014).

The data set concerns the molecule itself. Nature of the data set: FPLC gel filtration before and after sonication (self-association).

B1: 6H-15mer-CBD fusion protein (dragline spider silk 15mer fused to Clostridium cellulovorans CBDclos, with His tags and S-tag) (other)
chain: MHHHHHHSSGLVPRGSGMKETAAAKFERQHMDSPDLGTDDDDKAMASGRGGLGGQGAGAAAAAGGAGQGGYGGLGSQGTSGRGGLGGQGAGAAAAAGGAGQGGYGGLGSQGTSGRGGLGGQGAGAAAAAGGAGQGGYGGLGSQGTSGRGGLGGQGAGAAAAAGGAGQGGYGGLGSQGTSGRGGLGGQGAGAAAAAGGAGQGGYGGLGSQGTSGRGGLGGQGAGAAAAAGGAGQGGYGGLGSQGTSGRGGLGGQGAGAAAAAGGAGQGGYGGLGSQGTSGRGGLGGQGAGAAAAAGGAGQGGYGGLGSQGTSGRGGLGGQGAGAAAAAGGAGQGGYGGLGSQGTSGRGGLGGQGAGAAAAAGGAGQGGYGGLGSQGTSGRGGLGGQGAGAAAAAGGAGQGGYGGLGSQGTSGRGGLGGQGAGAAAAAGGAGQGGYGGLGSQGTSGRGGLGGQGAGAAAAAGGAGQGGYGGLGSQGTSGRGGLGGQGAGAAAAAGGAGQGGYGGLGSQGTSGRGGLGGQGAGAAAAAGGAGQGGYGGLGSQGTSMAATSSMSVEFYNSNKAAQTNSITPIIKITNTADSDLNLNDVKVRYYYTSDGTQGQTFWGDHAGALLGNSYVDNTGKVTANFVKETASPTSTYDTYVEFGFASGAATLKKGQFITIQGRITKSDWSNYAQTNDYSFDASSSTPVVNPKVTGYIGGAKVLGTAPGPDVPSSIINPTSATFDLEHHHHHH
notes: Expressed in E. coli BL21(DE3) from pET30a and purified on Ni-NTA; also called Silk-CBD; 6H-Silk-CBD
As for B1, the binding result was “binds”.
